Experimental data reported in the supplement of paper PMC9170038.

Test system: MS2 coat protein
Assay: apparent KD of MS2 coat protein; designed switch direction (-1 OFF switch, 1 ON switch): -1; higher = weaker reporter binding
Method in brief: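 Stalled E. coli RNA polymerase transcribed designed RNA switches on Illumina chips, which were then titrated with SNAP-549-labelled MS2 coat protein, doubling from 0.7 or 1.5 nM to 3 µM. Steps lasted from 0.8–1.5 h at the lowest concentration to 10–20 min at the highest. The apparent KD is each design's median over clusters of curve-fitted normalised fluorescence.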

[1] = Eterna round: R95, input ligand: FMN 200 uM
[2] = Eterna round: R95, input ligand: microRNA oligo, concentration not stated
[3] = Eterna round: R95, input ligand: none
[4] = input ligand: microRNA oligo, concentration not stated

| Sequence | apparent KD of MS2 coat protein [1] | apparent KD of MS2 coat protein [2] | apparent KD of MS2 coat protein [3] | apparent KD of MS2 coat protein (input ligand: FMN 200 uM) | apparent KD of MS2 coat protein (input ligand: none) | apparent KD of MS2 coat protein [4] |
| --- | --- | --- | --- | --- | --- | --- |
| UAACCUAUUGUCAGGAUAUCUACGUGGUAUCAUGAGGAGAAGGGACAUGAGGAUCACCCAUGUGGAAGGGAAAA [Beques] (puzzle: Brourd's mod of Exclusion 4) | 60.2 nM | 31.1 nM | 48.3 nM |  |  |  |
| UAAGAGUGAGGAUAUACGUCGCUGGCCCGGAUGGACGCAUGACAUGAGGAUCACCCAUGUAGAAGGCACAAAAC [Enxela Mod 14 - Jieux - Exclusion 2] (Eterna round: R97, puzzle: Exclusion 2) |  |  |  | 34.7 nM | 29.7 nM |  |
| UAAGGUCGUCAAUACCUAACCACAUGAGGAUCACCCAUGUCUGAGGAUAUGAAGGCGGCCCGCCAUUAGAAGGCAGCAAGGGAA [Ustiarmadi] (Eterna round: R96, puzzle: Exclusion NG 3) |  |  |  | 13.2 nM | 14.4 nM | 7.89 nM |
| UAAGUUUACCGAGGAUAUGGUUUUUCCUUUUUACCAGAAGGCGGACUCAACAUGAGGAUCACCCAUGUAUAAAGGGUAUUUGGU [JR_ExcNG1_Sub045] (Eterna round: R96, puzzle: Exclusion NG 1) |  |  |  | 57.8 nM | 54 nM | 49.6 nM |
| UAAUAAUAGCAAGGAUAUGGUUAUUAUAAUAUACCAGAAGGUGCACAUGAGGAUCACCCAUGUUUUAUAAUUUGUAAUUUAAAU [First something] (Eterna round: R96, puzzle: Exclusion NG 1) |  |  |  |  |  | 22.9 nM |
| UAAUACAAGUAAAGAUCCUACAUGAGGAUCACCCAUGUGCUCGUCUUGUAAAGUACUAUCACGAAAGUGAUAGUACU [Mat - Sensor v3 - turn-off var 1 - Eli Mod - D86] (puzzle: Sensor v3, turn-off variant 1) | 30.3 nM | 22 nM | 44.8 nM |  |  |  |
| UAAUAUAGAGGAUAUACAUGAGGAUCACCCAUGUGAGUCCAUUAUGGGAUGAGAUCGGGUAGAAGGCUACGAAU [Eternabot (L2) Solution 28] (Eterna round: R97, puzzle: Exclusion 3) |  |  |  | 143 nM | 57.7 nM |  |
| UAAUGUAUAUAGGAUAUCUAGCUGGAAACAGCUAGAGAAGGAUGUACAUGAGGAUCACCCAUGUAAAUCAAUAG [Ex6/9-A2] (Eterna round: R97, puzzle: Exclusion 6) |  |  |  | 48.3 nM | 21.8 nM |  |
| UAAUGUGCGAGAGGAUAUCGUGUACAAAGUACACGAGAAGGCUUCACAUGAGGAUCACCCAUGUAUCGAGGUGAAACACCUUGA [Omei Exc(NG)1 Bv3] (Eterna round: R96, puzzle: Exclusion NG 1) |  |  |  | 448 nM | 212 nM | 254 nM |
| UAAUUGAUUAAUAGAUUAUACAUGAGGAUCACCCAUGUAGGUCCUACGUGCCAUUUAAGCAGCUCGUCUUAUUCCCA [Sensor-V1 #68] (Eterna round: R97, puzzle: Sensor, turn-off variant 1) |  |  |  | 41.8 nM | 49 nM |  |
| UAAUUGUGAGGAUAUUCGUAUAACACGGAGACGUGUUGUACGGAGAAGGCACAUGAGGAUCACCCAUGUUCCUU [Mat - Exclusion 4 - JL Mod - D18] (Eterna round: R97, puzzle: Exclusion 4) |  |  |  | 96 nM | 15.2 nM |  |
| UACAGUCAUCCUUAUUGUUACAUGAGGAUCACCCAUGUUAGUAUAGUUAAGUUAUGUGAGUUUGUUGUUCGUUUUAU [JR_STOV1_v2_Sub078] (Eterna round: R97, puzzle: Sensor, turn-off variant 1) |  |  |  | 125 nM | 146 nM |  |
| UACAUGAGGAUCACCCAUGUUUUAUCAUGUGUAAUAAUAAUGUAGGAUAUGUAUUAUUUUAUUUAACAGAAGGACAAUAAUAAA [JMF's solution 2] (Eterna round: R96, puzzle: Exclusion NG 3) |  |  |  | 426 nM | 524 nM | 467 nM |
| UACAUGAGGAUCACCCAUGUUUUAUCAUGUGUAAUAAUAAUGUAGGAUAUGUAUUUAUUUAUUUAACAGAAGGACAAUAAUAAA [JMF's solution 3] (Eterna round: R96, puzzle: Exclusion NG 3) |  |  |  | 462 nM | 423 nM | 435 nM |
| UACAUGAGGAUCACCCAUGUUUUGUCGUGUAUGGUAUUUAUCUAGGAUAUCAAUUGAGUUAUUUAUGAGAAGGAGAAUAUUAAU [JMF's solution 59] (Eterna round: R96, puzzle: Exclusion NG 3) |  |  |  |  |  | 31.6 nM |
| UACAUGAGGAUCACCCAUGUUUUGUCGUGUAUGGUAUUUAUCUAGGAUAUCAAUUUGUUAAUUUAUGAGAAGGAGAAUAUUAAU [JMF's solution 69] (Eterna round: R96, puzzle: Exclusion NG 3) |  |  |  |  |  | 29.6 nM |
| UACAUGAGGAUCACCCAUGUUUUGUCGUGUAUGGUAUUUAUCUAGGAUAUCAUUUGAUUUAGUUAUGAGAAGGAGAAUAUUAAU [JMF's solution 86] (Eterna round: R96, puzzle: Exclusion NG 3) |  |  |  | 33.6 nM | 29.9 nM | 17.2 nM |

| Sequence | apparent KD of MS2 coat protein [1] | apparent KD of MS2 coat protein [2] | apparent KD of MS2 coat protein [3] | apparent KD of MS2 coat protein (input ligand: FMN 200 uM) | apparent KD of MS2 coat protein (input ligand: none) | apparent KD of MS2 coat protein [4] |
| --- | --- | --- | --- | --- | --- | --- |
| UACCUACAUGAGGAUCACCCAUGUCAGGAUAUCCGUGUGAACGAGUCGUUACACAGGCGGAGAAGGGACAUCGG [Eternabot (L1) Solution 65] (Eterna round: R97, puzzle: Exclusion 1) |  |  |  | 94.5 nM | 54.2 nM |  |
| UACGAGUUAGGAUAUGCUUUGGGCUCGCUUUCCUUCGAUAAACUUGAGGAUCACCCAAGUAGAAGGAACUUGUA [Mod 34 - Jieux - Exclusion 2] (Eterna round: R97, puzzle: Exclusion 2) |  |  |  | 49.2 nM | 29.6 nM |  |
| UACGGGUCAGGAUAUGCGAGAGAUUGGGAAAUAGGAAGGUAGCAGAAGGGACAUGAGGAUCACCCAUGUGAAGC [JR_Exclu4_Sub097] (puzzle: Exclusion 4) | 32.2 nM | 25.9 nM | 28.8 nM |  |  |  |
| UACGUGUCAGGAUAUUUGAAGCGAAUCACGAGCAUUCGCGUGGAGAAGGGACAUGAGGAUCACCCAUGUAGGCG [Eternabot (L1) Solution 32] (Eterna round: R97, puzzle: Exclusion 4) |  |  |  | 370 nM | 242 nM |  |
| UACUGACAUGAGGAUCACCCAUGUGAGGAUAUUCUCCUGCCAAAUUAAUGGUGGGUGUGAAGAAGGCACAAGGA [EX1 C.12] (Eterna round: R97, puzzle: Exclusion 1) |  |  |  | 98 nM | 29.1 nM |  |
| UACUGGACAGGAUAUGUUCUUGAGCACUUGAGGAUCACCCAAGUCAUCAAGAACUCAGGCACAGAAGGGUUUAUGU [salish99_ex5_r4_005] (Eterna round: R97, puzzle: Exclusion 5) |  |  |  | 70.2 nM | 18.5 nM |  |
| UACUUACGAGGAUAUCGAUUGUGGUACAUGAGGAUCACCCAUGUAUGUGAUAUUGUAUUUCGAGAAGGCGUUCAGU [JR_E5_Sub061] (puzzle: Exclusion 5) |  | 22.7 nM |  |  |  |  |
| UACUUCCGAGGAUAUACAUGAGGAUCACCCAUGUGCUUCAGCAUCUAAUGAUGCAUGGGUAGAAGGCGGUAGUU [LRO-Excl3-20] (puzzle: Exclusion 3) |  | 56 nM |  |  |  |  |
| UACUUGUUAGGAUAUCUUACAUUUGCAUCAUAGUAACCUUUGGAGAAGGGACAUGAGGAUCACCCAUGUUUGGU [tap-tap-tappy6] (Eterna round: R97, puzzle: Exclusion 4) |  |  |  | 49.2 nM | 72.6 nM |  |
| UAGAAGUCAGGAUAUCCAUGGCGGCACUUGCGUGGUGGCGUGGAGAAGGGACAUGAGGAUCACCCAUGUAAAGG [salish99-ex4-045] (Eterna round: R96, puzzle: Exclusion 4) |  |  |  | 192 nM | 100 nM | 63.1 nM |
| UAGGAGUCAGGAUAUGCGAGAGAUGGAAGAAAGGGAAGAGAGCAGAAGGGACAUGAGGAUCACCCAUGUAAGGA [JR_Exclu4_Sub090] (puzzle: Exclusion 4) | 34.2 nM | 35.7 nM | 36.1 nM |  |  |  |
| UAGGUACAUGAGGAUCACCCAUGUGAGGAUAUAGAGGAAGAUUGCGAGAGGGAGAGGACUAGAAGGCACAGUGG [JR_Exclu1_Sub035] (puzzle: Exclusion 1) | 37 nM | 28.1 nM | 39.9 nM |  |  |  |
| UAGUACAGAGGAUAUACAUGAGGAUCACCCAUGUGUUUCAGCUAGGAGACUAGCGAAAGUAGAAGGCUGUACUA [salish99_ex3_r4_008] (Eterna round: R97, puzzle: Exclusion 3) |  |  |  | 22.9 nM | 9.42 nM |  |
| UAGUGAGCGUGAGGAAUAUACAUGAGGAUCACCCAUGUUUGCUACUAUCUUGCUCGUCUUAUAACAACAAUUAACUG [mod-hagla-honey#50] (Eterna round: R97, puzzle: Sensor, turn-off variant 1) |  |  |  | 14.8 nM | 16.9 nM |  |
| UAGUUAUUCACAGGAUAUCGCCUCUUAUUACAUGAGGAUCACCCAUGUUUAUUUUGUUACAUGUUCGAGAAGGGUGUAGUCUUU [JR_ExcNG2_Sub046] (Eterna round: R96, puzzle: Exclusion NG 2) |  |  |  | 439 nM | 535 nM | 436 nM |
| UAUAACAAGCCAGAUCCUAACAUGAGGAUCACCCAUGUGCUCGUCUGAUUUUGUACUAUCAUGAGAGUGAUAGUACU [Level Boss var2-03] (puzzle: Sensor v3, turn-off variant 1) | 181 nM | 488 nM | 192 nM |  |  |  |
| UAUAACCAAGGAUAUACAUGAGGAUCACCCAUGUAAUAUAAAAUAAAAUAAAUAAAAUGUAGAAGGUGGGAUAU (Eterna round: R97, puzzle: Exclusion 3) |  |  |  | 40.8 nM | 37.6 nM |  |
